Biological target: Man9-V3 glycopeptide
Assay: BLI (Octet Red96), biotinylated Man9-V3 on streptavidin sensors, antibody in solution, bivalent avidity model

Question: For DH270.1 (antibody), which Kd is on record?
Answer: 331 nM

Question: Which Kd does the source give for DH270.6 (antibody) here?
Answer: 188 nM

Source: patent US20220185871A1
